Reference: US20260055162A1

How the values were obtained:
Assay in all cases: cell-based or functional assay
[1] = biological target: AA-TGFB-007 (TGFB-007), TGF-BR2 ECD-TGFBR2 TM-TGFBR2 truncated ICD (Homo sapiens (Human)) (UniProt P37173)
[2] = biological target: AA-TGFB-019 (TGFB-019), TGF-BR2 ECD-CD28 TM-CD28 ICD
[3] = biological target: AA-TGFB-052 (TGFB-052), TGF-BR2 ECD-CD28 TM-41BB ICD
[4] = biological target: AA-TGFB-056 (TGFB-056), TGF-BR2 ECD-CD28 Long TM-SLP76 ICD
[5] = biological target: AA-TGFB-057 (TGFB-057), TGF-BR2 ECD-CD28 Long TM-MYD88 ICD
Chain of AA-TGFB-057 (TGFB-057), TGF-BR2 ECD-CD28 Long TM-MYD88 ICD (chain, as listed by the source limits assumed, form in doubt): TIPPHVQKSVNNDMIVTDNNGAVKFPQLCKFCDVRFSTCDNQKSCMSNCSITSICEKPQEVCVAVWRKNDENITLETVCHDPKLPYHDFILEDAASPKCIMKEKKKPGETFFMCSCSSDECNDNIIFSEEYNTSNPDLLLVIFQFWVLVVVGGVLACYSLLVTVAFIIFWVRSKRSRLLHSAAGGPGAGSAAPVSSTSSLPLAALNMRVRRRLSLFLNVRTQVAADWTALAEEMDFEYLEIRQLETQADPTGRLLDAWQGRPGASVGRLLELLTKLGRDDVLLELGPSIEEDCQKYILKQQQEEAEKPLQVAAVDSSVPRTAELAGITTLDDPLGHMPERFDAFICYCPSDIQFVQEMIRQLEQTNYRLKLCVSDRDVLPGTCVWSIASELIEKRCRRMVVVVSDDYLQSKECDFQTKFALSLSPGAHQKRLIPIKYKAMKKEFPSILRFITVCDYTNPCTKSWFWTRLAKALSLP

[6] = biological target: AA-TGFB-058 (TGFB-058), TGF-BR2 ECD-DAP12 TM-DAP12 ICD
Chain of AA-TGFB-058 (TGFB-058), TGF-BR2 ECD-DAP12 TM-DAP12 ICD (chain, as listed by the source limits assumed, form in doubt): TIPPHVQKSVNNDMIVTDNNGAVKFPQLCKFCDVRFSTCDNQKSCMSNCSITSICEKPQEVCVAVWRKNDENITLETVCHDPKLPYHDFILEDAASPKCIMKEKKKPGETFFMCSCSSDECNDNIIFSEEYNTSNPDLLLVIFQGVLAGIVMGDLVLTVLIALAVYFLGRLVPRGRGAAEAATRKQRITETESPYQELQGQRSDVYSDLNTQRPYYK

[7] = biological target: AA-TGFB-060 (TGFB-060), TGF-BR2 ECD-CD28 Long TM-TRAF2 ICD
Chain of AA-TGFB-060 (TGFB-060), TGF-BR2 ECD-CD28 Long TM-TRAF2 ICD (chain, as listed by the source limits assumed, form in doubt): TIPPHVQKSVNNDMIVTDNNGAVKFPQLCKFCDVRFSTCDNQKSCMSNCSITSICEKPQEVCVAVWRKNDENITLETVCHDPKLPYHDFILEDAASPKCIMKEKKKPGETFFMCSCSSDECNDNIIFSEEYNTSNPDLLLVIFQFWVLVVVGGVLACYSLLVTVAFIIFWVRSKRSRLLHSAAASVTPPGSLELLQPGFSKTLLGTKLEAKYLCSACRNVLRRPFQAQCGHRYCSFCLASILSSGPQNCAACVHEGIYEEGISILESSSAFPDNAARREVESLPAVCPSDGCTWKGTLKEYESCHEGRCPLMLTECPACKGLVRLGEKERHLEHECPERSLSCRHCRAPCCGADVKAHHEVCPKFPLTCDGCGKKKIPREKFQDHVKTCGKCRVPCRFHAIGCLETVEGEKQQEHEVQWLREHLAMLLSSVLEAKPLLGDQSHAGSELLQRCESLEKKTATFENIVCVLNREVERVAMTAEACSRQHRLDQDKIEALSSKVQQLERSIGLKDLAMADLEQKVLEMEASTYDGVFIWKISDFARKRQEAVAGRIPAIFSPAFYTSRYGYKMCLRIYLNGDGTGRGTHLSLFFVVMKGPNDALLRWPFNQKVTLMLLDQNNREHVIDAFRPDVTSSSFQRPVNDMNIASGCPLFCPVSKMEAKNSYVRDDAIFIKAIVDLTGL

[8] = biological target: AA-TGFB-061 (TGFB-061), TGF-BR2 ECD-CD28 Long TM-TRAF3 ICD
Chain of AA-TGFB-061 (TGFB-061), TGF-BR2 ECD-CD28 Long TM-TRAF3 ICD (chain, as listed by the source limits assumed, form in doubt): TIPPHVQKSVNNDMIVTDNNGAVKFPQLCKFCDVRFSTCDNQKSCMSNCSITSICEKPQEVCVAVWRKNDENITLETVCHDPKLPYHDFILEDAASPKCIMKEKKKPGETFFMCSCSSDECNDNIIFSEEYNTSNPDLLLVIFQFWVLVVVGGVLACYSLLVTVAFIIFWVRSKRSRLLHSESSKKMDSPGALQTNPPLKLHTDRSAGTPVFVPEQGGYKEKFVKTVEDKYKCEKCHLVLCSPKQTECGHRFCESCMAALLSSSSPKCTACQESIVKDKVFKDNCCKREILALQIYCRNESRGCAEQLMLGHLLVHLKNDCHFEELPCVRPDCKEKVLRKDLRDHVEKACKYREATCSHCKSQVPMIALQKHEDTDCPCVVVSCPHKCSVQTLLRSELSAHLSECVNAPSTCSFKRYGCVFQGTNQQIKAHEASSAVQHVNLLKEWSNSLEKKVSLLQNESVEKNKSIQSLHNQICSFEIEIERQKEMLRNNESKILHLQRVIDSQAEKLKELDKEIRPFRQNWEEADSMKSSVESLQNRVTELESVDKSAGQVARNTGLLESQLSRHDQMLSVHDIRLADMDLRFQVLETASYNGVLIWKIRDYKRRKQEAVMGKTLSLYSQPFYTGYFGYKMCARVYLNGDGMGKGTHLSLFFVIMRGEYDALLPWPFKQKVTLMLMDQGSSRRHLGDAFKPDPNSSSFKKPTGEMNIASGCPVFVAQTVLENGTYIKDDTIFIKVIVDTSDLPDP

[9] = biological target: AA-TGFB-064 (TGFB-064), TGF-BR2 ECD-CD28 Long TM-TIRAP ICD
Chain of AA-TGFB-064 (TGFB-064), TGF-BR2 ECD-CD28 Long TM-TIRAP ICD (chain, as listed by the source limits assumed, form in doubt): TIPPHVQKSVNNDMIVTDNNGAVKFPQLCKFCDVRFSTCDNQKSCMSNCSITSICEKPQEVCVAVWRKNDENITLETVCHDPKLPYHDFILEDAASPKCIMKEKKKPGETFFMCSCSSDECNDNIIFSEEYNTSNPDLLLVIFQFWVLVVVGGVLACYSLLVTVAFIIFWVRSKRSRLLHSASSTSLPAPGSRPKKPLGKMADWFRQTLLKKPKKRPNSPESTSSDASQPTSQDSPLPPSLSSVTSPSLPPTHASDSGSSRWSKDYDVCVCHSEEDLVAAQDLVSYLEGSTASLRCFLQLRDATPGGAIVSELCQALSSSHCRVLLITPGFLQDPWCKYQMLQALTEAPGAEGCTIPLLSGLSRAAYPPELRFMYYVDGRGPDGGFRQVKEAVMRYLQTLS

[10] = biological target: AA-TGFB-068 (TGFB-068), TGF-BR2 ECD-FCGR3A TM-FCGR3A ICD
Chain of AA-TGFB-068 (TGFB-068), TGF-BR2 ECD-FCGR3A TM-FCGR3A ICD (chain, as listed by the source limits assumed, form in doubt): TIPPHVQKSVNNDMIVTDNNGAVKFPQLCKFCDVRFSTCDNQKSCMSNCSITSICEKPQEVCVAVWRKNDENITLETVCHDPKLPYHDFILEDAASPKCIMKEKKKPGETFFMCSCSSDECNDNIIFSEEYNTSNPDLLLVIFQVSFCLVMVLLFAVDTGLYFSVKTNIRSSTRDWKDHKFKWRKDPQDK

[11] = biological target: AA-TGFB-071 (TGFB-071), TGF-BR2 ECD-SLAMF5 TM-SLAMF5 ICD
Chain of AA-TGFB-071 (TGFB-071), TGF-BR2 ECD-SLAMF5 TM-SLAMF5 ICD (chain, as listed by the source limits assumed, form in doubt): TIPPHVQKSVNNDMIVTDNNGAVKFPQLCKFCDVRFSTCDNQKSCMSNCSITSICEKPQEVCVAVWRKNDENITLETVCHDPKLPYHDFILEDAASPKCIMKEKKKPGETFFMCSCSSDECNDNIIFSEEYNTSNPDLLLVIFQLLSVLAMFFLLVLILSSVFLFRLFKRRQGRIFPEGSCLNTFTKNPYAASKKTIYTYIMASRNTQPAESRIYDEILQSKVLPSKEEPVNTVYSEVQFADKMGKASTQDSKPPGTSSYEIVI

Chain of AA-TGFB-019 (TGFB-019), TGF-BR2 ECD-CD28 TM-CD28 ICD (chain, as listed by the source limits assumed, form in doubt): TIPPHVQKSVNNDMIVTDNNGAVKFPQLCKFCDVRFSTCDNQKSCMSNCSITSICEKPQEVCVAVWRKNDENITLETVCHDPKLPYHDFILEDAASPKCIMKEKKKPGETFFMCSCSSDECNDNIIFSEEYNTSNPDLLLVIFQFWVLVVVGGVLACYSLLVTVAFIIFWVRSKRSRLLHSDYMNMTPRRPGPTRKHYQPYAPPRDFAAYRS
Chain of AA-TGFB-052 (TGFB-052), TGF-BR2 ECD-CD28 TM-41BB ICD (chain, as listed by the source limits assumed, form in doubt): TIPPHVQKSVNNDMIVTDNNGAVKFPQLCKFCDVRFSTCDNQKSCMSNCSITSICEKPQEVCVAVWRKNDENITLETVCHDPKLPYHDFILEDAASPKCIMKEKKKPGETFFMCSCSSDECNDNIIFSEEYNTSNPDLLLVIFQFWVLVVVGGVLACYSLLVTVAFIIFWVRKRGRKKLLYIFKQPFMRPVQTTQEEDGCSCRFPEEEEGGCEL
Chain of AA-TGFB-056 (TGFB-056), TGF-BR2 ECD-CD28 Long TM-SLP76 ICD (chain, as listed by the source limits assumed, form in doubt): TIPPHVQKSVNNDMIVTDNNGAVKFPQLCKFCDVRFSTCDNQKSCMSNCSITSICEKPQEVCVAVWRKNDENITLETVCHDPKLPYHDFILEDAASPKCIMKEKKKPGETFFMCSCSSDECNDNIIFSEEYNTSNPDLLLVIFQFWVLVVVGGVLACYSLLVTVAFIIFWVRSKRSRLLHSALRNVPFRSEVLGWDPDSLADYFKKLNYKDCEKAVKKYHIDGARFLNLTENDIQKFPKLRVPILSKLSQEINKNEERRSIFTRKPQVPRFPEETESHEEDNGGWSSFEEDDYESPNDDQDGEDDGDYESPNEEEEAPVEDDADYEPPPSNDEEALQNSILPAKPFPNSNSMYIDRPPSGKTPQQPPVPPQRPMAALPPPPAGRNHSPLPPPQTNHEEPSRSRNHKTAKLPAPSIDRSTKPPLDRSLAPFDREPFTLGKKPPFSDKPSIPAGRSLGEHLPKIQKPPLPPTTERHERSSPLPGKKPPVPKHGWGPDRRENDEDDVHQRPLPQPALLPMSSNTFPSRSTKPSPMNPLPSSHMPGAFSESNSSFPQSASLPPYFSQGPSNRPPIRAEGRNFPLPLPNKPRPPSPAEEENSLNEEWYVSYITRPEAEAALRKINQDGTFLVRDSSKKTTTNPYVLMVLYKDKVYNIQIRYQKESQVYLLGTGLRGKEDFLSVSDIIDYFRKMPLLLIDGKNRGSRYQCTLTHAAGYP
Chain of recombinant TGF-B1 cytokine (P01137 279-390 limits assumed): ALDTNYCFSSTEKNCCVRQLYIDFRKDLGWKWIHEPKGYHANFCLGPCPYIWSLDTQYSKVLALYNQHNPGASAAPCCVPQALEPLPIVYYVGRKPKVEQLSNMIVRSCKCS
Chain of AA-TGFB-007 (TGFB-007), TGF-BR2 ECD-TGFBR2 TM-TGFBR2 truncated ICD (Homo sapiens (Human)) (P37173 23-199, form in doubt): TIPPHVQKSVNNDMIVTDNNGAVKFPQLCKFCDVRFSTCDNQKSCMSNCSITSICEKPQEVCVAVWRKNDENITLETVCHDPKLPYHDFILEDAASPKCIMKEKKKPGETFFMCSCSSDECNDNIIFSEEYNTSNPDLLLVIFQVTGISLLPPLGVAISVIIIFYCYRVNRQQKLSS

Which 5-Day Fold Expansion of NK cells, 10 ng/mL TGF-B1 [1] does the source give for “recombinant TGF-B1 cytokine (from UniProt P01137 279-390) (ligand)” here?
Its 5-Day Fold Expansion of NK cells, 10 ng/mL TGF-B1 is 2 fold.

And the Average % Killing (SKOV-3), 10 ng/mL TGF-B1 [1]?
Its Average % Killing (SKOV-3), 10 ng/mL TGF-B1 is 24.1%.

What about the Average IFNg Secretion, 10 ng/mL TGF-B1 [1] of the same substance?
The Average IFNg Secretion, 10 ng/mL TGF-B1 was greater than 9000 pg/mL.

What about the Average IP-10 Secretion, 10 ng/mL TGF-B1 [1] of the same substance?
Its Average IP-10 Secretion, 10 ng/mL TGF-B1 is 2150.

What about the CD69, fold-change of MFI over no stimulation, High (0.05 ug/mL) [1] of the same substance?
Its CD69, fold-change of MFI over no stimulation, High (0.05 ug/mL) is 1.2 fold.

And the CD69, fold-change of MFI over no stimulation, Low (0.002 ug/mL) [1]?
The CD69, fold-change of MFI over no stimulation, Low (0.002 ug/mL) was 1.4 fold.

And the CD69, fold-change of MFI over no stimulation, Med. (0.01 ug/mL) [1]?
Its CD69, fold-change of MFI over no stimulation, Med. (0.01 ug/mL) is 1.2 fold.

And the GFP, fold-change of MFI over no stimulation, High (0.05 ug/mL) [1]?
Its GFP, fold-change of MFI over no stimulation, High (0.05 ug/mL) is 0.8 fold.

And the GFP, fold-change of MFI over no stimulation, Low (0.002 ug/mL) [1]?
The GFP, fold-change of MFI over no stimulation, Low (0.002 ug/mL) was 0.7 fold.

And the GFP, fold-change of MFI over no stimulation, Med. (0.01 ug/mL) [1]?
The GFP, fold-change of MFI over no stimulation, Med. (0.01 ug/mL) was 0.7 fold.

What about the 5-Day Fold Expansion of NK cells, 10 ng/mL TGF-B1 [2] of the same substance?
The 5-Day Fold Expansion of NK cells, 10 ng/mL TGF-B1 was 1.99 fold.

What about the Average % Killing (SKOV-3), 10 ng/mL TGF-B1 [2] of the same substance?
The Average % Killing (SKOV-3), 10 ng/mL TGF-B1 was 21.1%.

What about the Average IFNg Secretion, 10 ng/mL TGF-B1 [2] of the same substance?
Its Average IFNg Secretion, 10 ng/mL TGF-B1 is 6700 pg/mL.

And the Average IP-10 Secretion, 10 ng/mL TGF-B1 [2]?
The Average IP-10 Secretion, 10 ng/mL TGF-B1 was 1170.

What about the 5-Day Fold Expansion of NK cells, 10 ng/mL TGF-B1 [3] of the same substance?
The 5-Day Fold Expansion of NK cells, 10 ng/mL TGF-B1 was 1.57 fold.

And the Average % Killing (SKOV-3), 10 ng/mL TGF-B1 [3]?
The Average % Killing (SKOV-3), 10 ng/mL TGF-B1 was 12.8%.

What about the Average IFNg Secretion, 10 ng/mL TGF-B1 [3] of the same substance?
The Average IFNg Secretion, 10 ng/mL TGF-B1 was 8770 pg/mL.

What about the Average IP-10 Secretion, 10 ng/mL TGF-B1 [3] of the same substance?
The Average IP-10 Secretion, 10 ng/mL TGF-B1 was 976.

What about the 5-Day Fold Expansion of NK cells, 10 ng/mL TGF-B1 [4] of the same substance?
Its 5-Day Fold Expansion of NK cells, 10 ng/mL TGF-B1 is 0.41 fold.

And the Average % Killing (SKOV-3), 10 ng/mL TGF-B1 [4]?
Its Average % Killing (SKOV-3), 10 ng/mL TGF-B1 is 2.07%.

And the Average IFNg Secretion, 10 ng/mL TGF-B1 [4]?
Its Average IFNg Secretion, 10 ng/mL TGF-B1 is 1.68 pg/mL.

And the 5-Day Fold Expansion of NK cells, 10 ng/mL TGF-B1 [5]?
The 5-Day Fold Expansion of NK cells, 10 ng/mL TGF-B1 was 1.02 fold.

And the Average % Killing (SKOV-3), 10 ng/mL TGF-B1 [5]?
The Average % Killing (SKOV-3), 10 ng/mL TGF-B1 was 11.2%.

What about the Average IFNg Secretion, 10 ng/mL TGF-B1 [5] of the same substance?
Its Average IFNg Secretion, 10 ng/mL TGF-B1 is 7770 pg/mL.

What about the Average IP-10 Secretion, 10 ng/mL TGF-B1 [5] of the same substance?
The Average IP-10 Secretion, 10 ng/mL TGF-B1 was 2760.

And the 5-Day Fold Expansion of NK cells, 10 ng/mL TGF-B1 [6]?
Its 5-Day Fold Expansion of NK cells, 10 ng/mL TGF-B1 is 1.76 fold.

What about the Average % Killing (SKOV-3), 10 ng/mL TGF-B1 [6] of the same substance?
The Average % Killing (SKOV-3), 10 ng/mL TGF-B1 was 8.35%.

And the Average IFNg Secretion, 10 ng/mL TGF-B1 [6]?
Its Average IFNg Secretion, 10 ng/mL TGF-B1 is 2360 pg/mL.

What about the Average IP-10 Secretion, 10 ng/mL TGF-B1 [6] of the same substance?
The Average IP-10 Secretion, 10 ng/mL TGF-B1 was 837.

What about the 5-Day Fold Expansion of NK cells, 10 ng/mL TGF-B1 [7] of the same substance?
Its 5-Day Fold Expansion of NK cells, 10 ng/mL TGF-B1 is 1.11 fold.

And the Average % Killing (SKOV-3), 10 ng/mL TGF-B1 [7]?
Its Average % Killing (SKOV-3), 10 ng/mL TGF-B1 is 8.77%.

And the Average IFNg Secretion, 10 ng/mL TGF-B1 [7]?
Its Average IFNg Secretion, 10 ng/mL TGF-B1 is 3070 pg/mL.

And the Average IP-10 Secretion, 10 ng/mL TGF-B1 [7]?
Its Average IP-10 Secretion, 10 ng/mL TGF-B1 is 1230.

What about the 5-Day Fold Expansion of NK cells, 10 ng/mL TGF-B1 [8] of the same substance?
The 5-Day Fold Expansion of NK cells, 10 ng/mL TGF-B1 was 1.29 fold.

What about the Average % Killing (SKOV-3), 10 ng/mL TGF-B1 [8] of the same substance?
Its Average % Killing (SKOV-3), 10 ng/mL TGF-B1 is 8.9%.

What about the Average IFNg Secretion, 10 ng/mL TGF-B1 [8] of the same substance?
The Average IFNg Secretion, 10 ng/mL TGF-B1 was 3090 pg/mL.

And the Average IP-10 Secretion, 10 ng/mL TGF-B1 [8]?
The Average IP-10 Secretion, 10 ng/mL TGF-B1 was 762.

What about the 5-Day Fold Expansion of NK cells, 10 ng/mL TGF-B1 [9] of the same substance?
Its 5-Day Fold Expansion of NK cells, 10 ng/mL TGF-B1 is 1.04 fold.

What about the Average % Killing (SKOV-3), 10 ng/mL TGF-B1 [9] of the same substance?
Its Average % Killing (SKOV-3), 10 ng/mL TGF-B1 is 9.89%.

And the Average IFNg Secretion, 10 ng/mL TGF-B1 [9]?
The Average IFNg Secretion, 10 ng/mL TGF-B1 was 4790 pg/mL.

And the Average IP-10 Secretion, 10 ng/mL TGF-B1 [9]?
Its Average IP-10 Secretion, 10 ng/mL TGF-B1 is 1540.

What about the 5-Day Fold Expansion of NK cells, 10 ng/mL TGF-B1 [10] of the same substance?
Its 5-Day Fold Expansion of NK cells, 10 ng/mL TGF-B1 is 1.55 fold.

What about the Average % Killing (SKOV-3), 10 ng/mL TGF-B1 [10] of the same substance?
The Average % Killing (SKOV-3), 10 ng/mL TGF-B1 was 8.25%.

What about the Average IFNg Secretion, 10 ng/mL TGF-B1 [10] of the same substance?
Its Average IFNg Secretion, 10 ng/mL TGF-B1 is 2820 pg/mL.

And the Average IP-10 Secretion, 10 ng/mL TGF-B1 [10]?
The Average IP-10 Secretion, 10 ng/mL TGF-B1 was 686.

What about the 5-Day Fold Expansion of NK cells, 10 ng/mL TGF-B1 [11] of the same substance?
Its 5-Day Fold Expansion of NK cells, 10 ng/mL TGF-B1 is 3.06 fold.

What about the Average % Killing (SKOV-3), 10 ng/mL TGF-B1 [11] of the same substance?
Its Average % Killing (SKOV-3), 10 ng/mL TGF-B1 is 18.8%.

What about the Average IFNg Secretion, 10 ng/mL TGF-B1 [11] of the same substance?
Its Average IFNg Secretion, 10 ng/mL TGF-B1 is greater than 9000 pg/mL.
